Data from patent US20200377590A1 (Hoffmann-La Roche, published 2020).
Numbering of substitutions follows the chain as printed. Blank lines part the entries; values can stand above or below the binder they belong to.

Molecular target: T1, CD81 (UniProt P60033 1-236, limits assumed)
T1 construct: whole, on cells; also called CD81 receptor
T1 sequence (looked up): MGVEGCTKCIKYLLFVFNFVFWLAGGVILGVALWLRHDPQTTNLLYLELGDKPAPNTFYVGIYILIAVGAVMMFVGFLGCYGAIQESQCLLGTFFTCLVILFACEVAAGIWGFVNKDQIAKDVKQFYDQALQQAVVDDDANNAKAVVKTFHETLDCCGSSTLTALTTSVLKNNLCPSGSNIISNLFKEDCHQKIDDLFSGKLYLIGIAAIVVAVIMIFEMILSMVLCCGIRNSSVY
Assay: cell ELISA;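 also: antibody binding to HuH7 cells expressing CD81 versus a CD81-negative HuH7 control line, bound antibody detected by secondary reagent, absorbance at 450 nm with 620 nm reference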
Experimental: For the binding cell ELISA assay, HuH7-Rluc-H3 (positive cell line expressing CD81) and HuH7-Rluc-L1 (negative control cell line) were propagated in F-12 DMEM medium with 10% FCS at 37° C. and 5% CO₂. On day 1, the cells were trypsinized at approximately 90% confluence and resuspended at 4×10⁵ cells/mL. […] On day 2, the antibody samples to be tested were prepared in a separate polypropylene round bottom plate with a twofold desired concentration with a final volume of 120 μl. All of the assay samples were diluted in cell culture medium. […] After fixation, each well was washed 3 times with 200 μL PBS/0.05% Tween. The secondary incubation step for detection of bound anti-CD81 antibodies was performed for 2 h at room temperature on a reciprocal shaker. […] Each well was washed three times with 200 μL PBS/0.05% Tween to remove unbound antibodies. […] The absorbance was read using the ELISA Tecan reader at 450 nm with 620 nm reference wavelength.

B1: CD81K04 HC GG-02-hVH_1_69 / LC GG-02-hVK_4_1 (antibody, V domains shown)
VH: QVQLVQSGAEVKKPGSSVKVSCKASGYTFSSSWMNWVRQAPGQGLEWMGRIYSGDGDAIYNQKFQGRVTITADESTSTAYMELSSLRSEDTAVYYCAREGKTGDLLLRSWGQGTLVTVSS
VL: DIVMTQSPDSLAVSLGERATINCKSSKSVSTSIYSYMHWYQQKPGQPPKLLIYYASYRESGVPDRFSGSGSGTDFTLTISSLQAEDVAVYYCQHSREFPFTFGQGTKLEIK
notes: human constant region
ELISA data: 0.22

B4: CD81K04 HC GG-02-hVH_1_69 / LC GG-03-hVK_4_1 (antibody, V domains shown)
VH: B1 VH
VL: B1 VL with M37L, H38A
notes: human constant region
ELISA data: 0.142

B5: CD81K04 HC GG-04-hVH_1_69 / LC JA_GG-09-hVK_4_1 (antibody, V domains shown)
VH: B1 VH with V68A
VL: B1 VL with Y53K, Y57T, Q93E
notes: human constant region
ELISA data: 0.918

B6: CD81K04 HC GG-05-hVH_1_18 / LC GG-04-hVK_4_1 (antibody, V domains shown)
VH: B1 VH with S16A, N61A, F64L, I70M, A72T, E74T, S84R, E89D
VL: B1 VL with M37L, H38A, Y57T, F100Y
notes: human constant region
ELISA data: 0.187

B7: CD81K04 HC GG-04-hVH_1_69 / LC GG-04-hVK_4_1 (antibody, V domains shown)
VH: B1 VH with V68A
VL: B1 VL with M37L, H38A, Y57T, F100Y
notes: human constant region
ELISA data: 0.141

B10: CD81K04 HC GG-05-hVH_1_18 / LC JA_GG-08-hVK_4_1 (antibody, V domains shown)
VH: B1 VH with S16A, N61A, F64L, I70M, A72T, E74T, S84R, E89D
VL: B1 VL with Y53K, R58L, Q93E
notes: human constant region
ELISA data: 0.881

B12: CD81K04 HC GG-05-hVH_1_18 / LC JA_GG-09-hVK_4_1 (antibody, V domains shown)
VH: B1 VH with S16A, N61A, F64L, I70M, A72T, E74T, S84R, E89D
VL: B1 VL with Y53K, Y57T, Q93E
notes: human constant region
ELISA data: 0.889

B15: CD81K04 HC GG-02-hVH_1_69 / LC GG-04-hVK_4_1 (antibody, V domains shown)
VH: B1 VH
VL: B1 VL with M37L, H38A, Y57T, F100Y
notes: human constant region
ELISA data: 0.075

B18: CD81K04 HC GG-03-hVH_1_69 / LC JA_GG-09-hVK_4_1 (antibody, V domains shown)
VH: B1 VH with N61A
VL: B1 VL with Y53K, Y57T, Q93E
notes: human constant region
ELISA data: 0.832

B21: CD81K04 HC GG-04-hVH_1_69 / LC GG-03-hVK_4_1 (antibody, V domains shown)
VH: B1 VH with V68A
VL: B1 VL with M37L, H38A
notes: human constant region
ELISA data: 0.162

B23: CD81K04 HC GG-04-hVH_1_69 / LC JA_GG-10-hVK_4_1 (antibody, V domains shown)
VH: B1 VH with V68A
VL: B1 VL with K24R, S25A, Y53K, R58L, Q93E
notes: human constant region
ELISA data: 0.762

B25: CD81K04 HC GG-03-hVH_1_69 / LC GG-04-hVK_4_1 (antibody, V domains shown)
VH: B1 VH with N61A
VL: B1 VL with M37L, H38A, Y57T, F100Y
notes: human constant region
ELISA data: 0.07

B26: CD81K04 HC GG-05-hVH_1_18 / LC GG-02-hVK_4_1 (antibody, V domains shown)
VH: B1 VH with S16A, N61A, F64L, I70M, A72T, E74T, S84R, E89D
VL: B1 VL
notes: human constant region
ELISA data: 0.664

B27: CD81K04 HC GG-02-hVH_1_69 / LC JA_GG-08-hVK_4_1 (antibody, V domains shown)
VH: B1 VH
VL: B1 VL with Y53K, R58L, Q93E
notes: human constant region
ELISA data: 0.792

B29: CD81K04 HC GG-03-hVH_1_69 / LC JA_GG-08-hVK_4_1 (antibody, V domains shown)
VH: B1 VH with N61A
VL: B1 VL with Y53K, R58L, Q93E
notes: human constant region
ELISA data: 0.815

B32: CD81K04 HC GG-04-hVH_1_69 / LC GG-02-hVK_4_1 (antibody, V domains shown)
VH: B1 VH with V68A
VL: B1 VL
notes: human constant region
ELISA data: 0.27

B36: CD81K04 HC GG-03-hVH_1_69 / LC JA_GG-10-hVK_4_1 (antibody, V domains shown)
VH: B1 VH with N61A
VL: B1 VL with K24R, S25A, Y53K, R58L, Q93E
notes: human constant region
ELISA data: 0.691

B38: CD81K04 HC GG-03-hVH_1_69 / LC GG-03-hVK_4_1 (antibody, V domains shown)
VH: B1 VH with N61A
VL: B1 VL with M37L, H38A
notes: human constant region
ELISA data: 0.165

B39: CD81K04 HC GG-04-hVH_1_69 / LC JA_GG-08-hVK_4_1 (antibody, V domains shown)
VH: B1 VH with V68A
VL: B1 VL with Y53K, R58L, Q93E
notes: human constant region
ELISA data: 0.773

B40: CD81K04 HC GG-03-hVH_1_69 / LC GG-02-hVK_4_1 (antibody, V domains shown)
VH: B1 VH with N61A
VL: B1 VL
notes: human constant region
ELISA data: 0.44

B41: CD81K04 HC GG-02-hVH_1_69 / LC JA_GG-09-hVK_4_1 (antibody, V domains shown)
VH: B1 VH
VL: B1 VL with Y53K, Y57T, Q93E
notes: human constant region
ELISA data: 0.783

B42: CD81K04 HC GG-02-hVH_1_69 / LC JA_GG-10-hVK_4_1 (antibody, V domains shown)
VH: B1 VH
VL: B1 VL with K24R, S25A, Y53K, R58L, Q93E
notes: human constant region
ELISA data: 0.643

Results, then the binder that gave them:

ELISA data: 0.743
B2: CD81K04 HC JA_GG-13-hVH_1_69 / LC JA_GG-08-hVK_4_1 (antibody, V domains shown)
VH: B1 VH with Y27G, N61A
VL: B1 VL with Y53K, R58L, Q93E
notes: human constant region

ELISA data: 0.776
B3: CD81K04 HC JA_GG-13-hVH_1_69 / LC JA_GG-09-hVK_4_1 (antibody, V domains shown)
VH: B1 VH with Y27G, N61A
VL: B1 VL with Y53K, Y57T, Q93E
notes: human constant region

ELISA data: 0.211
B8: CD81K04 HC JA_GG-14-hVH_1_69-GA / LC GG-02-hVK_4_1 (antibody, V domains shown)
VH: B1 VH with Q62G, Q65K, R67K, V68A
VL: B1 VL
notes: human constant region

ELISA data: 0.26
B9: CD81K04 HC JA_GG-14-hVH_1_69 / LC GG-03-hVK_4_1 (antibody, V domains shown)
VH: B1 VH with Q62G, Q65K, R67K, V68A
VL: B1 VL with M37L, H38A
notes: human constant region

ELISA data: 0.177
B11: CD81K04 HC JA_GG-14-hVH_1_3 / LC GG-04-hVK_4_1 (antibody, V domains shown)
VH: B1 VH with S16A, Q62G, Q65K, V68A, E74T, T76A
VL: B1 VL with M37L, H38A, Y57T, F100Y
notes: human constant region

ELISA data: 0.172
B13: CD81K04 HC JA_GG-13-hVH_1_69 / LC GG-02-hVK_4_1 (antibody, V domains shown)
VH: B1 VH with Y27G, N61A
VL: B1 VL
notes: human constant region

ELISA data: 0.913
B14: CD81K04 HC JA_GG-14-hVH_1_69 / LC JA_GG-09-hVK_4_1 (antibody, V domains shown)
VH: B1 VH with Q62G, Q65K, R67K, V68A
VL: B1 VL with Y53K, Y57T, Q93E
notes: human constant region

ELISA data: 0.975
B16: CD81K04 HC JA_GG-14-hVH_1_3 / LC JA_GG-09-hVK_4_1 (antibody, V domains shown)
VH: B1 VH with S16A, Q62G, Q65K, V68A, E74T, T76A
VL: B1 VL with Y53K, Y57T, Q93E
notes: human constant region

ELISA data: 0.073
B17: CD81K04 HC JA_GG-13-hVH_1_69 / LC GG-04-hVK_4_1 (antibody, V domains shown)
VH: B1 VH with Y27G, N61A
VL: B1 VL with M37L, H38A, Y57T, F100Y
notes: human constant region

ELISA data: 0.613
B19: CD81K04 HC JA_GG-13-hVH_1_69 / LC JA_GG-10-hVK_4_1 (antibody, V domains shown)
VH: B1 VH with Y27G, N61A
VL: B1 VL with K24R, S25A, Y53K, R58L, Q93E
notes: human constant region

ELISA data: 0.882
B20: CD81K04 HC JA_GG-14-hVH_1_3 / LC JA_GG-10-hVK_4_1 (antibody, V domains shown)
VH: B1 VH with S16A, Q62G, Q65K, V68A, E74T, T76A
VL: B1 VL with K24R, S25A, Y53K, R58L, Q93E
notes: human constant region

ELISA data: 0.888
B22: CD81K04 HC JA_GG-14-hVH_1_69-GA / LC JA_GG-09-hVK_4_1 (antibody, V domains shown)
VH: B1 VH with Q62G, Q65K, R67K, V68A
VL: B1 VL with Y53K, Y57T, Q93E
notes: human constant region

ELISA data: 0.575
B24: CD81K04 HC JA_GG-14-hVH_1_3 / LC GG-02-hVK_4_1 (antibody, V domains shown)
VH: B1 VH with S16A, Q62G, Q65K, V68A, E74T, T76A
VL: B1 VL
notes: human constant region

ELISA data: 0.77
B28: CD81K04 HC JA_GG-14-hVH_1_69 / LC JA_GG-10-hVK_4_1 (antibody, V domains shown)
VH: B1 VH with Q62G, Q65K, R67K, V68A
VL: B1 VL with K24R, S25A, Y53K, R58L, Q93E
notes: human constant region

ELISA data: 0.835
B30: CD81K04 HC JA_GG-14-hVH_1_69 / LC JA_GG-08-hVK_4_1 (antibody, V domains shown)
VH: B1 VH with Q62G, Q65K, R67K, V68A
VL: B1 VL with Y53K, R58L, Q93E
notes: human constant region

ELISA data: 0.115
B31: CD81K04 HC JA_GG-13-hVH_1_69 / LC GG-03-hVK_4_1 (antibody, V domains shown)
VH: B1 VH with Y27G, N61A
VL: B1 VL with M37L, H38A
notes: human constant region

ELISA data: 0.235
B33: CD81K04 HC JA_GG-14-hVH_1_69 / LC GG-02-hVK_4_1 (antibody, V domains shown)
VH: B1 VH with Q62G, Q65K, R67K, V68A
VL: B1 VL
notes: human constant region

ELISA data: 0.836
B34: CD81K04 HC JA_GG-14-hVH_1_69-GA / LC JA_GG-08-hVK_4_1 (antibody, V domains shown)
VH: B1 VH with Q62G, Q65K, R67K, V68A
VL: B1 VL with Y53K, R58L, Q93E
notes: human constant region

ELISA data: 0.953
B35: CD81K04 HC JA_GG-14-hVH_1_3 / LC JA_GG-08-hVK_4_1 (antibody, V domains shown)
VH: B1 VH with S16A, Q62G, Q65K, V68A, E74T, T76A
VL: B1 VL with Y53K, R58L, Q93E
notes: human constant region

ELISA data: 0.243
B37: CD81K04 HC JA_GG-14-hVH_1_69-GA / LC GG-03-hVK_4_1 (antibody, V domains shown)
VH: B1 VH with Q62G, Q65K, R67K, V68A
VL: B1 VL with M37L, H38A
notes: human constant region

ELISA data: 0.545
B43: CD81K04 HC JA_GG-15-hVH_1_3 / LC GG-03-hVK_4_1 (antibody, V domains shown)
VH: B1 VH with S16A, G44R, Q62G, Q65K, E74T, T76A
VL: B1 VL with M37L, H38A
notes: human constant region

ELISA data: 0.602
B44: CD81K04 HC JA_GG-15-hVH_1_3 / LC GG-02-hVK_4_1 (antibody, V domains shown)
VH: B1 VH with S16A, G44R, Q62G, Q65K, E74T, T76A
VL: B1 VL
notes: human constant region

ELISA data: 0.518
B45: CD81K04 HC JA_GG-14-hVH_1_3 / LC GG-03-hVK_4_1 (antibody, V domains shown)
VH: B1 VH with S16A, Q62G, Q65K, V68A, E74T, T76A
VL: B1 VL with M37L, H38A
notes: human constant region

ELISA data: 0.733
B46: CD81K04 HC JA_GG-14-hVH_1_69-GA / LC JA_GG-10-hVK_4_1 (antibody, V domains shown)
VH: B1 VH with Q62G, Q65K, R67K, V68A
VL: B1 VL with K24R, S25A, Y53K, R58L, Q93E
notes: human constant region
